T1: Flag tagged recombinant DLL3 (Adipogen) (Homo sapiens (Human), UniProt Q9NYJ7 27-492)
T1 construct: Bought reagent; also called Flag-DLL3
T1 sequence: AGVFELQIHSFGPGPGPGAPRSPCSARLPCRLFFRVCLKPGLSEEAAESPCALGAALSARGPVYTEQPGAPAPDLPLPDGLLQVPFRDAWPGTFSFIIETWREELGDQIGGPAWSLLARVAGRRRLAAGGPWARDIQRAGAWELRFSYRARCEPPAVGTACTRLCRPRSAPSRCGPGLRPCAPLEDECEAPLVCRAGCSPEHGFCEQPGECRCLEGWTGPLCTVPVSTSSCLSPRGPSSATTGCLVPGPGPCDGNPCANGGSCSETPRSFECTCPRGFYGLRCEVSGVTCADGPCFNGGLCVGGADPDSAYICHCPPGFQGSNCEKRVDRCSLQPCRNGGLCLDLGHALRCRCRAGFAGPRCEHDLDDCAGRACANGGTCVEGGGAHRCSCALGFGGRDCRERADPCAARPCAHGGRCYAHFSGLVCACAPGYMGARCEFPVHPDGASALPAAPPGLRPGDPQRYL

B1: 5G2 (other)
CAR: QVQLQQSGPGLVKPSQTLSLTCAISGDSVSSNSAVWNWIRQSPSRGLEWLGWTYYRSKYYNDYAVSLKSRITINPDTSKNQFSLQLNSLTPEDTAVYYCTRGGIVGAPDGFDIWGQGTMVTVSSGGGGSGGGGSGGGGSGGGGSQSALTQPPSASGTPGQRVTISCSGSNSNIGSNPINWYQQLPGTAPKLLIYSNNQRPSGVPDRFSGSKSGTSASLAISGLQSEDEADYYCAAWDDSLNGHVFGTGTKVTVLTTTPAPRPPTPAPTIASQPLSLRPEACRPAAGGAVHTRGLDFACDIYIWAPLAGTCGVLLLSLVITKRGRKKLLYIFKQPFMRPVQTTQEEDGCSCRFPEEEEGGCELRVKFSRSADAPAYQQGQNQLYNELNLGRREEYDVLDKRRGRDPEMGGKPRRKNPQEGLYNELQKDKMAEAYSEIGMKGERRRGKGHDGLYQGLSTATKDTYDALHMQALPPR
notes: also called anti-DLL3 CAR with 5G2 scFv, on primary T cells
B2: 4E1 (other)
CAR: QVQLQQSGPGLVKPSQTLSLTCAISGDNVSTNSAAWNWIRQSPSRGLEWLGWTYYRSKWYNDYAVSLKSRININPDTSKNQFSLQLNSVTPEDTAVYYCARWVNRDVFDIWGQGTMVTVSSGGGGSGGGGSGGGGSGGGGSQSALTQPASVSGSPGQSITISCTGTSSDVGSYNLVSWYQQHPGKAPKLMIYEGSKRPSGVSNRFSGSKSGNTASLTISGLQAEDEADYYCCSYAGSSTWVFGGGTKLTVLTTTPAPRPPTPAPTIASQPLSLRPEACRPAAGGAVHTRGLDFACDIYIWAPLAGTCGVLLLSLVITKRGRKKLLYIFKQPFMRPVQTTQEEDGCSCRFPEEEEGGCELRVKFSRSADAPAYQQGQNQLYNELNLGRREEYDVLDKRRGRDPEMGGKPRRKNPQEGLYNELQKDKMAEAYSEIGMKGERRRGKGHDGLYQGLSTATKDTYDALHMQALPPR
notes: also called anti-DLL3 CAR with 4E1 scFv, on primary T cells
B3: 10A2 (other)
CAR: QVQLQQSGPGLVKPSETLSLTCAISGDSVSSNSATWNWIRQSPSRGLEWLGRTYYRSEWYNDYAVSVKSRITINPDTSKNHLSLHLNSVTPEDTAVYYCAGGGIVGAPDGFDVWGQGTMVTVSSGGGGSGGGGSGGGGSGGGGSQSVLTQPPSASGTPGQRVTISCSGSSSNIGSDPVIWYQQLPRTAPKLLIYSNNQRPSGVPDRFSGSKSGTSASLAISGLQSEDEADYYCAAWDDSLNGYVFGTGTKVTVLTTTPAPRPPTPAPTIASQPLSLRPEACRPAAGGAVHTRGLDFACDIYIWAPLAGTCGVLLLSLVITKRGRKKLLYIFKQPFMRPVQTTQEEDGCSCRFPEEEEGGCELRVKFSRSADAPAYQQGQNQLYNELNLGRREEYDVLDKRRGRDPEMGGKPRRKNPQEGLYNELQKDKMAEAYSEIGMKGERRRGKGHDGLYQGLSTATKDTYDALHMQALPPR
notes: also called anti-DLL3 CAR with 10A2 scFv, on primary T cells
B4: 11A8 (other)
CAR: QVQLQQSGPGLVKPSQTLSLTCAISGDSVSSNSATWNWIRQSPSTGLEWLARTYYRSKWYNDYEVSVKSQITINPDTSKNQFSLQLNSVTPEDTAVYYCARGGIVGAPDAFDIWGQGTMVTVSSGGGGSGGGGSGGGGSGGGGSQSVLTQPPSASGTPGQGVTISCSGSSSNIGSNPVNWYQQLPGTAPKLLIYSNNQRPSGVPDRFSDSKSGTSASLAISGLQSEDEADYYCSAWDDWLNGYVFGTGTKVTVLTTTPAPRPPTPAPTIASQPLSLRPEACRPAAGGAVHTRGLDFACDIYIWAPLAGTCGVLLLSLVITKRGRKKLLYIFKQPFMRPVQTTQEEDGCSCRFPEEEEGGCELRVKFSRSADAPAYQQGQNQLYNELNLGRREEYDVLDKRRGRDPEMGGKPRRKNPQEGLYNELQKDKMAEAYSEIGMKGERRRGKGHDGLYQGLSTATKDTYDALHMQALPPR
notes: also called anti-DLL3 CAR with 11A8 scFv, on primary T cells
B5: 3B11 (other)
CAR: QVQLQQSGPGLVKPSQTLSLTCAISGDSVSSNSVVWNWIRQSPSRGLEWLGRTYYRSKWYDDYAVSVKSRITINPDTSKNQFSLQLNSVTPEDTAVYHCARGGIVGAPDAFDIWGQGTMVTVSSGGGGSGGGGSGGGGSGGGGSQSVLTQPPSASGTPGQRVTISCSGSSSNIGSDPVSWYQQFPGTAPKLLIYTNNQRPSGVPDRFSGSKSGTSASLAISGLQSEDEADYYCAAWDDSLNGHVFGTGTKVTVLTTTPAPRPPTPAPTIASQPLSLRPEACRPAAGGAVHTRGLDFACDIYIWAPLAGTCGVLLLSLVITKRGRKKLLYIFKQPFMRPVQTTQEEDGCSCRFPEEEEGGCELRVKFSRSADAPAYQQGQNQLYNELNLGRREEYDVLDKRRGRDPEMGGKPRRKNPQEGLYNELQKDKMAEAYSEIGMKGERRRGKGHDGLYQGLSTATKDTYDALHMQALPPR
notes: also called anti-DLL3 CAR with 3B11 scFv, on primary T cells
B6: 2404.6H1 (other)
CAR: QVQLVESGGGVVQPGRSLRLSCAASGFTFSSYGMHWVRQTPGKGLEWVAVISYDGNSNYYADSVKGRFTISRDNSKNTLYLQMNSLRAEDTAVYYCARDGATVTSYYYYGMDVWGQGTTVTVSSGGGGSGGGGSGGGGSGGGGSEIVLTQSPGTLSLSPGERATLSCRASQSVSRTYLAWYHQKPGQAPRLLIYGASSRATGISDRFSGSGSGTDFTLTISRLEPEDFAVYYCQQYGTSPITFGQGTRLEIKTTTPAPRPPTPAPTIASQPLSLRPEACRPAAGGAVHTRGLDFACDIYIWAPLAGTCGVLLLSLVITKRGRKKLLYIFKQPFMRPVQTTQEEDGCSCRFPEEEEGGCELRVKFSRSADAPAYQQGQNQLYNELNLGRREEYDVLDKRRGRDPEMGGKPRRKNPQEGLYNELQKDKMAEAYSEIGMKGERRRGKGHDGLYQGLSTATKDTYDALHMQALPPR
notes: also called anti-DLL3 CAR with 2404.6H1 scFv, on primary T cells
B7: 11E4 (other)
CAR: QVQLQESGPGLVKPSETLSLTCTVSGGSISSYYWSWIRQSPGKGLEWIGYVYYSDITNYNPSLKSRVTISVDTSKNQFSLNLNSVTAADTAFYFCARIGVAGFYFDYWGQGTLVTVSSGGGGSGGGGSGGGGSGGGGSEIVLTQSPDTLSLSPGERATLSCRASQSVSRRYLAWYQQKPGQAPRLLIYGASSRATGIPDRFSGSGSGTDFTLTISRLEPEDFEVYYCQQYGTSPITFGQGTRLEIKTTTPAPRPPTPAPTIASQPLSLRPEACRPAAGGAVHTRGLDFACDIYIWAPLAGTCGVLLLSLVITKRGRKKLLYIFKQPFMRPVQTTQEEDGCSCRFPEEEEGGCELRVKFSRSADAPAYQQGQNQLYNELNLGRREEYDVLDKRRGRDPEMGGKPRRKNPQEGLYNELQKDKMAEAYSEIGMKGERRRGKGHDGLYQGLSTATKDTYDALHMQALPPR
notes: also called anti-DLL3 CAR with 11E4 scFv, on primary T cells
B8: 3B1 (other)
CAR: QVQLQQSGPGLVKPSQTLSLTCAISGDSVSSNTTAWKWSRQSPSKGLEWLGWTYYRSKWYYDYTVSVKSRITINPDTSKNQFSLQLNSVTPEDTAVYYCARWIFHDAFDIWGQGTMVTVSSGGGGSGGGGSGGGGSGGGGSQSALTQPPSASGTPGQRVTISCSGSSSNIGSNTVNWYQQLPGTAPKLLIYTNNQRPSGVPDRFSGSKSGTSASLAISGLQSEDEADYFCSTWDDSLNGPVFGGGTKLTVLTTTPAPRPPTPAPTIASQPLSLRPEACRPAAGGAVHTRGLDFACDIYIWAPLAGTCGVLLLSLVITKRGRKKLLYIFKQPFMRPVQTTQEEDGCSCRFPEEEEGGCELRVKFSRSADAPAYQQGQNQLYNELNLGRREEYDVLDKRRGRDPEMGGKPRRKNPQEGLYNELQKDKMAEAYSEIGMKGERRRGKGHDGLYQGLSTATKDTYDALHMQALPPR
notes: also called anti-DLL3 CAR with 3B1 scFv, on primary T cells

What follows are binders tested against T1, Flag tagged recombinant DLL3 (Adipogen) (assay: flow cytometry, percent of T cells that recognise recombinant DLL3, Donor 503).
Procedure: (§1) To determine the percentage of T cells that were successfully transduced with DLL3 CAR, T cells were first incubated with 1 ug/ml Flag tagged recombinant DLL3 (Adipogen) in PBS+1% BSA for 20 minutes at 4 C.

Transduction efficiency | Binder
42.8% | B1
3.18% | B2
67.6% | B3
45.1% | B4
65.8% | B5
6.41% | B6
62.8% | B7
7.95% | B8

These binders were tested against T1, Flag tagged recombinant DLL3 (Adipogen) (assay: flow cytometry, percent of T cells that recognise recombinant DLL3, Donor 419).
Procedure: as §1

Transduction efficiency | Binder
36.7% | B1
2.35% | B2
58.5% | B3
33.4% | B4
57.3% | B5
6.01% | B6
54.8% | B7
6.15% | B8

Reference: patent US20230287120A1 (ALLOGENE THERAPEUTICS, published 2023)
